From patent US20180194839A1 (Novartis, published 2018)

Assays:
[1] = target: T1, recombinant mouse IL-17F (R&D Systems Cat#2057-IL/CF) (mouse, UniProt Q7TNI7 29-161); assay: ELISA, coated cytokine;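 note: antibodies incubated 3 h at room temperature on cytokine-coated plates, binding read out with alkaline phosphatase-conjugated anti-species IgG secondary antibodies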
T1 construct: also called mIL-17F
T1 sequence (looked up): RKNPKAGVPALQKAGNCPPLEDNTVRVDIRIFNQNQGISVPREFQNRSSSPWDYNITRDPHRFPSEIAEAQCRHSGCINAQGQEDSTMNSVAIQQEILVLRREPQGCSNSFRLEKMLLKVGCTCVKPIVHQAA

[2] = target: T2, recombinant human IL-1β (Novartis) (human, UniProt P01584 117-269); assay: ELISA, coated cytokine;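 note: antibodies incubated 3 h at room temperature on cytokine-coated plates, binding read out with alkaline phosphatase-conjugated anti-species IgG secondary antibodies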
T2 construct: also called huIL1β

[3] = target: T3, recombinant human IL-12 (R&D Systems Cat#219-IL-005/CF) (human, UniProt P29459 23-219; P29460 23-328); assay: ELISA, coated cytokine;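 note: antibodies incubated 3 h at room temperature on cytokine-coated plates, binding read out with alkaline phosphatase-conjugated anti-species IgG secondary antibodies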
T3 construct: also called huIL-12
T3 sequence (looked up) 1: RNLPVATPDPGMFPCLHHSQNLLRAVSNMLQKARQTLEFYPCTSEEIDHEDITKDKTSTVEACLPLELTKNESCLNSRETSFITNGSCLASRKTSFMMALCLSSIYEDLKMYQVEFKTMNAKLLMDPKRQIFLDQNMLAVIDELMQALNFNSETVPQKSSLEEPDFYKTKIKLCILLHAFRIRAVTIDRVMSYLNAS
T3 sequence (looked up) 2: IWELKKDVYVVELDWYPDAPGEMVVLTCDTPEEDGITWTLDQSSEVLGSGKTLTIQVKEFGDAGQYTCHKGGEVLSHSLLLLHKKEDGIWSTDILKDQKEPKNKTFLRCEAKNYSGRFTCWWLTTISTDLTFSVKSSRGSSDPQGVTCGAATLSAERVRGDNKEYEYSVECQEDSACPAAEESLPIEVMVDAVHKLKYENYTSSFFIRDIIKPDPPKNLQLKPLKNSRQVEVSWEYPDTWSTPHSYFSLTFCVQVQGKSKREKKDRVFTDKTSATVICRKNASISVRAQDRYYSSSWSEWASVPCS

[4] = target: T4, recombinant mouse IL-17A (SEQ ID NO: 83) (mouse, UniProt Q62386 26-158); assay: cell-based or functional assay
T4 sequence: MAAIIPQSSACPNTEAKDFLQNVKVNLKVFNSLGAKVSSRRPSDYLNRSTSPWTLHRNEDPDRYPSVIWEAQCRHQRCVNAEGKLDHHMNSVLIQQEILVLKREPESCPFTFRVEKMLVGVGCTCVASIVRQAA

[5] = target: T5, recombinant mouse IL-17A/F (R&D Systems Cat#5390-IL) (mouse, UniProt Q62386 26-158; Q7TNI7 29-161, limits assumed); assay: cell-based or functional assay
T5 sequence (looked up) 1: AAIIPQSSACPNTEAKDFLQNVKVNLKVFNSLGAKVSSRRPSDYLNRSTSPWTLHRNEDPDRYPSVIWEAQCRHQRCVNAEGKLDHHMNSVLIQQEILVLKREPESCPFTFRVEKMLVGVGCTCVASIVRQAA
T5 sequence (looked up) 2: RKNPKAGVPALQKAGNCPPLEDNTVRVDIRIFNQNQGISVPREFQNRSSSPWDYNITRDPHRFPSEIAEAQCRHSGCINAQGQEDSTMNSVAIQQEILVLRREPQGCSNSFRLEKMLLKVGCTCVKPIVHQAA

[6] = target: T6, recombinant mouse IL-17F (SEQ ID NO: 84) (mouse, UniProt Q7TNI7 29-161); assay: cell-based or functional assay
T6 sequence: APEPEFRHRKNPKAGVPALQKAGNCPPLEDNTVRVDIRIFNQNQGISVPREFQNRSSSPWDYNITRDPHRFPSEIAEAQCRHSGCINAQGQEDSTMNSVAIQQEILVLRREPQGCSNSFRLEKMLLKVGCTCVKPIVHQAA

[7] = target: T7, recombinant rat IL-17A (SEQ ID NO: 85) (rat, UniProt Q61453 18-150); assay: cell-based or functional assay
T7 sequence: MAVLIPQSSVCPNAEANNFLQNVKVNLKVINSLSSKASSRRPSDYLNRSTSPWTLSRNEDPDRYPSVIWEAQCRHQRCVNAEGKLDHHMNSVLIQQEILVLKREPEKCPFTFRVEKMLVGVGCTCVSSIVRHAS

[8] = target: T8, recombinant human IL-17A/F heterodimer (human, UniProt Q16552 24-155; Q96PD4 31-163, limits assumed); assay: ELISA, coated antigen, Ab 1 µg/ml
T8 construct: heterodimer of an IL-17A subunit and an IL-17F subunit; also called huIL-17A/F; rhuIL-17A/F
T8 sequence (looked up) 1: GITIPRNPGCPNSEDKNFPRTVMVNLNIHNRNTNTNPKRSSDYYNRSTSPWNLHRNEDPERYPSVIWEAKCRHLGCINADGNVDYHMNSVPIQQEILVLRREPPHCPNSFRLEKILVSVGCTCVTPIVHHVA
T8 sequence (looked up) 2: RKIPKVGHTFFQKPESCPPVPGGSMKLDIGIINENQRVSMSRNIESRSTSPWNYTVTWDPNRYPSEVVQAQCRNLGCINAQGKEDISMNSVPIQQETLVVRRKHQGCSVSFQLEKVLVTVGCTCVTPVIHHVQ

[9] = target: T9, recombinant human IL-17B (R&D Systems) (human, UniProt Q9UHF5 21-180); assay: ELISA, coated antigen, Ab 1 µg/ml
T9 construct: also called huIL-17B; hu IL-17B
T9 sequence (looked up): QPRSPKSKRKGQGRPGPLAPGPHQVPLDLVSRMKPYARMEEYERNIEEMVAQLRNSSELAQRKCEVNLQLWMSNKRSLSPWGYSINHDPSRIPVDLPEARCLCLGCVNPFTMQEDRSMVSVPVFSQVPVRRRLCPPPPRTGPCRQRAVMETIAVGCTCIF

[10] = target: T10, human IL-17A (construct not stated) (human, UniProt Q16552 24-155, limits assumed); assay: competition ELISA: biotinylated huIL-17A pre-incubated with antibody, binding to coated huIL-17RA
T10 construct: also called huIL-17A; human IL-17A biotin
T10 sequence: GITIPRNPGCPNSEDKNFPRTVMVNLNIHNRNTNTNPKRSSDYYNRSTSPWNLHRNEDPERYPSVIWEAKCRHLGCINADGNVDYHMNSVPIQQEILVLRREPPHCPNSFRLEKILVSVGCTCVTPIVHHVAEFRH

[11] = target: T10, human IL-17A (construct not stated); assay: cell-based or functional assay

B1: XAB4 (antibody, human IgG1, kappa, V domains shown)
VH: EVQLVESGGDLVQPGGSLRLSCAASGFTFSSYWMSWVRQAPGKGLEWVANIKQDGSEKYYVDSVKGRFTISRDNAKNSLYLQMNSLRAEDTAVYYCARDRGSLYYWGQGTLVTVSS
VL: AIQLTQSPSSLSASVGDRVTITCRPSQGINWELAWYQQKPGKAPKLLIYDASSLEQGVPSRFSGSGSGTDFTLTISSLQPEDFATYYCQQFNSYPLTFGGGTKVEIKR
notes: also called MB435 N56Q
binding result [1]: no binding (tested: 10 µg/ml) | binding result [2]: no binding (tested: 10 µg/ml) | binding result [3]: no binding (tested: 10 µg/ml) | IC50, mouse KC secretion by CMT-93 cells; stimulus mIL-17A (1 nM) [4]: 13.8 nM | IC50, mouse KC secretion by CMT-93 cells; stimulus mIL-17A/F (3 nM) [5]: 10.3 nM | IC50, mouse KC secretion by CMT-93 cells; stimulus mIL-17F (30 nM) [6]: > 10000 nM | IC50, mouse KC secretion by CMT-93 cells; stimulus rIL-17A (1 nM) [7]: 6.7 nM | O.D. [8]: 2.14 O.D. | O.D. [9]: 0.034 O.D. | IC50 [10]: 0.321 nM

B2: XAB1 (antibody, human IgG1, kappa, V domains shown)
VH: EVQLVESGGDLVQPGGSLRLSCAASGFTFSSYWMSWVRQAPGKGLEWVANIKQDGSEKYYVDSVKGRFTISRDNAKNSLYLQMNSLRAEDTAVYYCARDRGSLYYWGQGTLVTVSS
VL: AIQLTQSPSSLSASVGDRVTITCRPSQGIISALAWYQQKPGKAPKLLIYDASSLENGVPSRFSGSGSGTDFTLTISSLQPEDFATYYCQQFNSYPLTFGGGTKVEIKR
notes: human IgG1/kappa monoclonal antibody; also called parental XAB1; XAB1 IgG
IC50, in vitro neutralization, Hu IL-6 sec [11]: 4 nM | IC50, in vitro neutralization, Hu IL-8 sec [11]: 3 nM | IC50, mouse KC secretion by CMT-93 cells; stimulus mIL-17A (1 nM) [4]: 539 nM | IC50, mouse KC secretion by CMT-93 cells; stimulus mIL-17A/F (3 nM) [5]: > 1000 nM | IC50, mouse KC secretion by CMT-93 cells; stimulus mIL-17F (30 nM) [6]: > 10000 nM | IC50, mouse KC secretion by CMT-93 cells; stimulus rIL-17A (1 nM) [7]: 467 nM | O.D. [8]: 1.22 O.D. | O.D. [9]: 0.049 O.D. | IC50 [10]: 0.83 nM
